Test results as given in patent US20210085770A1 (KORANEX CAPITAL, published 2021).

Target: T1, recombinant SARS-CoV-2 S1 protein expressed from insect (Sf9) cells (S1-His, SinoBiological, Cat. No. … (SARS-CoV-2, UniProt P0DTC2 16-685, glycosylated by insect cells))
T1 construct: also called 51-His (as misprinted)
Test: ELISA, coated insect-cell S1-His, HRP-conjugated lectin 10 ug/mL

Binder	mean fold increase of OD450
Vicia villosa lectin (VVA) (other) SESTSFSFTNFNPNQENLILQEDALVNSKGTLELTKNGKPVPESLGRNCTTLASFTTSFSFVMSAPNSLDVADGLAFFLAPPDTQPQKRGGFLGLFKDRKHDISYQSVAVEFDTYSNVWDPNTTHIGIDTNTIESKKITPFDMVYGEKILFASLVFPVSQDILPEYVRVGFSATTGLNEGVVETH	22.5 fold
Maackia amurensis lectin (MAA) (other) SDELSFTINNFVPNEADLLFQGEASVSSTGVLQLTRVENGQPQKYSVGRALYAAPVRIWDNTTGSVASFSTSFTFVVKAPNPDITSDGLAFYLAPPDSQIPSGSVSKYLGLFNNSNSDSSNQIVAVELDTYFAHSYDPWDPNYRHIGIDVNGIESIKTVQWDWINGGVAFATITYLAPNKTLIASLVYPSNQTTFSVAASVDLKEILPEWVRVGFSAATGYPTEVETHDVLSWSFTSTLEANCDAATEN	4.3 fold
